From PMC8659020, “Ferrocene-Labelled Electroactive Aptamer-Based Sensors (Aptasensors) for Glycated Haemoglobin”

Target: Haemoglobin (Hb) (UniProt P69905;P68871 2-142;2-147)
Test: differential pulse voltammetry (electrochemical aptasensor); aptamer immobilized on electrode; DPV in 10 mM Tris-HCl (stated for clinical-range test; pH and temperature not given); EIS in 5 mM [Fe(CN)6]3-/4-, 0.1 M KCl; aptamer loaded in 5 mM MgCl2, 10 mM Tris-HCl, electrodes rinsed with 0.1 M PBS pH 6.5, 1 mM MgCl2
Details: protein: commercial; chain copies: 2;2; label: 5' ferrocene; single strand, Mfold-predicted secondary structure

Haemoglobin (Hb), sequence (P69905 2-142, chain 1 of 2): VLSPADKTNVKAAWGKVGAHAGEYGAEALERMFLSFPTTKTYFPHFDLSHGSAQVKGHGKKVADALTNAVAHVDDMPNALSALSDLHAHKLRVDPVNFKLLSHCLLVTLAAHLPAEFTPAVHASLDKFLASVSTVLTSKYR
Haemoglobin (Hb), sequence (P68871 2-147, chain 2 of 2): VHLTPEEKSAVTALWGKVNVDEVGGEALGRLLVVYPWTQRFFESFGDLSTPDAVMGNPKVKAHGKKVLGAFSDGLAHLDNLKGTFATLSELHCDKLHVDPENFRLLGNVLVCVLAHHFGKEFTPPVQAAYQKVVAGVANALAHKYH

B1: Hb aptamer (II) (ssDNA)
DNA: ACGCACACCAGAGACAAGTAGCCCCCCAAACGCGGCCACGGAACGCAGCACCTCCATGGC
modifications: 5' ferrocene; 3' thiol (SH), immobilized on gold screen-printed electrode
Work on B1 yielded a Kd of 95.9 ± 40 µg/mL.
